The data set is described as follows: soluble on expression in E. coli; label from the status in PepcDB or PDB records.
Consider “MGSDKIHHHHHHLDLAPEDYYGAGNFWKEASQPKAFMLGLHAQLRSYYDMFYTLGELRGGTQRVGTSSLNTSLNYADIRSQNISEDIPGISNWNGLYSPIMQVNHFIQEVENGCTFLDDATRSRYLGQAYGMRALYYFMLYRTFGGVPLITKVDILDGKPSADKFYVERATPEATMEFIKADINKSENYFGNNTSFDAYDWSRYATLMLKAEIYMWAAKVSITGFTATGATDLQTAKTALSGIIGHFELMDNFASIFSCDNKKNTEIIFAMPFIEGEASNDGGRFLYQDAVFLGQAYGRNGKVIEKDTLNLKGTGGVFRDEYTEDFWKTFKEGDSRRDATFMEYYMKNDNGTLSEFGCVMKKRIGTINSNDNRIYISDIPVYRYADALLMMAEIENGLNNPCASYINEVRKRAYGDTFEENKYTEGSYAENELAILQERDKEFVSEGKRWFDVLRMHDASGRSLVFSANANYPGTNPILGTEEAYKMLWPVNIGTLNVNPLLTQTPGYGKK”, for which the “soluble on expression in E. coli” value is given as “not soluble”.

As for “MEHLFGKWLPDLPAAISDGISLPMVRLLHTRSLTAALRALPHTFSVELLKLGELETECGGRLVREVLLKLDRIPVVEARSECRIGSAFWQNILDCGTRPLGERLFQADLEGARSAFEFAVAGEGCGRYFAARRSRFSRHGEEMLLTEYFLPELKRFIG”, the “soluble on expression in E. coli” value is listed as “not soluble”.

Consider “MSAPKPFVIGIAGGTASGKTTLAQALARTLGERVALLPMDHYYKDLGHLPLEERLRVNYDHPDAFDLALYLEHAQALLRGLPVEMPVYDFRAYTRSPRRTPVRPAPVVILEGILVLYPKELRDLMDLKVFVDADADERFIRRLKRDVLERGRSLEGVVAQYLEQVKPMHLHFVEPTKRYADVIVPRGGQNPVALEMLAAKALARLARMGAA”, for which the “soluble on expression in E. coli” value was “soluble”.

Take “NQLLTQQANEDGLTKLFNRRYIDQKLDSMVAWHGRHHMPMAMILLDVDFFKPFNDNYGHIEGDRCLQAIANQLKATFCRSGEYVGRYGGEEFVVLLSSTDAQTAEREAERIQEAMYFLDYQHEFSSVANRVTVSQGVFVFQPTGKENQADLYATADRALYTSKSLGRNTYTMVNAS”: the “soluble on expression in E. coli” value is listed as “not soluble”.

As for “MKVAIIGATGYGGIELIRLLEQHPYFSIASLHSFSQVGECITNVYPHFQNVLVHTLQEIDVEEIEKEAEIVFLATPAGVSAELTPKLLAVGLKVIDLSGDFRMKDPFIYEQWYKRAAAKEGVLREAVYGLSEWKRSEIQKANLIANPGCFATAALLAILPLVRSGIIEEDSIIIDAKSGVSGAGKTPTTMTHFPELYDNLRIYKVNEHQHIPEIEQMLAEWNRETKPITFSTHLIPISRGIMVTLYAKVKREMEIEQLQQLYEEAYEQSAFIRIRMQGEFPSPKEVRGSNYCDMGIAYDERTGRVTIVSVIDNMMKGAAGQAIQNANIVAGLEETTGLQHMPLYL”, the “soluble on expression in E. coli” value is “not soluble”.

With “MGSDKIHHHHHHMNWGKYATYSEDFFEKLTSESNQLDLYIFVQYLLHYQLSEAVDYCHQLGIALKGDIAIGIAHDSVDAWTHPELFHLDKQAGAPPDIFAVNGQNWGFPTYNWKKMAEDGYAWWKKRLTAMSNYFDAYRLDHILGFFRIWQMPEDSVRGLLGQFSPAIALSAEEIENSYGIPLRQWGLERFINPFIKDWVIDEIFGRDNRDWIIQTFLDYIGNGNYTFQNEYNNQKKVEKAQLEDWVREGLYKLHENIILLKDDENPEKYHPRISLIQTISFREFGDDYKGRLEKLYNDYFYGRNYEFWKEKAYEKLPVLKDATNMLACGEDLGMVPANVPDVMNHLNILRLIIERMPSDNRFVSPLNEVPYLSVLTTSSHDTSPLRAWWEENHEEIQRYYNEVMGWYGEAPYYASAEIIQEIVKRHLNSNAMMVILPIQDWLAMSEQLRKEDAKSEQINIPANPYHYWNYRLHCQLETLIDNQDWTEFLKKFIKESKRAY”, the “soluble on expression in E. coli” value is on record as “not soluble”.

Consider “MVRIRWFFIRHAESEANVVERWRIAGRSEAARLTERGERQARVVGEAVAIRLEQVLRVDGGDAGGVSGDAGRRRVLAPVAFTSPLLRARQTAALVLEQVAQPVKLEPVDDLAEVYQGLWEDALRSEVHTPETLQAMARNPYEFRAPGGEAQADVERRVLRAVSRMSQRVLSLLSLELEENEQTDVIVLVFTHGYVCKCLIRSVLDASPHLTGQIQVDNGALVELWLEPAAQQGALTSAAELGMWTVLRINDTWGQLTASMR”, for which the “soluble on expression in E. coli” value was “not soluble”.

For the sequence “MGSDKIHHHHHHMRLTCAIIDDEPLAVSLLESYVLKTPFLDLQGTYNSALDALSDLRDRPVDLLFLDIQMPELSGLEFSRILNADTRVIFTTAFDQYAVDSYRVNALDYLLKPISYPDFLASANKALRWYELLRKPVSSEEKEGSAPIAEKGGMESIFVKSEYKLLQIELRKILYIEGLKDYVKIFVEDEPRPVLSLMSMKSLEDMLPSDRFVRVHRSFIVQPEKIKVIERNRIVFGKEYIPISDNYKQHFLEMIERRSILPK”, the “soluble on expression in E. coli” value is listed as “not soluble”.

On to “MSLNGKPAVFPEVKSIKITGNKALTTEEIREVMSTSTRNSFFGTGLFAGARRPFIADDFEKDISLIRKLYTFKGYFFADVEPTVKRSKNGDVSITIRIRENQPTLLDSLSYAGLDSIPENLRSRYLKKSLLKLQQIFSVEKLIEERDRTLDFFREHGYTFFHPDSIRITVDTLGLHAGVRFDISLPGRYAYGPVKVFVHDPLKKDNPAIAKTFVRDNVSVTIYGHQKFSPKVFSSAIAWKQGALTRQSLEQRTLENFGSTNLFSSISMQKDAARAGAIPITIDLDPAPKHQIEPKLLVDNRYGSLFVGGALSYENRNLFGAGQQLKLSTNYGRQLSSDTNVLSSLSADQYDKLIPYEFNIKADLVIPRLGKQGSYYNGTVEYAQSKLPVLLDSKRELIRATYSTRPTRVSKLDFDFFELEVARKDSLRGFQQLFKNDLAQNIGINPADPVAVNRGLDSLLQTRLNQTFRLRYSLSNREKSTRSKRSPIWNFSVTAEESGSLLWLIDKYIDKKSYAGFTDSDPQIFGTPYNQYVKLDTQLAVTKNLSPKRQVAARIALGWMSPYGKADTTPEDHRFYAGGSNSMRGWVFGTLGPGSCPNAAVSNFGADIKAELGLEYRIQFFKVFGQESGIALFTDAGNIWDRTGPYAFSLRSLTQDFAWDWGAGLRIGSPIGPFRFDFAWKLHDPANPQPWRFSQTKLTDFTFNFGIGETFEGHHHHHH”, for which the “soluble on expression in E. coli” value is listed as “not soluble”.

For “MKLTDRLLKIASLVSDGKKIADIGTDHGYIPVYLLKEGKVPFAVLADVNKGPLDNAHKEVIQNNLLDKVDLRLGSGIEILEIGEVEEVIIAGMGGILISELLEAKKEVAHNVEKLILQPMQAQEELRYYLLNNGYEILEEVLVREDFRIYEIIVAKYTGKNTIIEDEIYYEVGIKLLENKDSLFNDFIEKKIKTYSSIVNKLEGKNGEAIDKKRKESEVAIKKLENLIK”, the “soluble on expression in E. coli” value is recorded as “not soluble”.

Consider “MSLEKVLVIVGPTAVGKTALSIALAKKFNGEIISGDSMQVYRSLDIGTAKVTETEKEGIPHYLIDCREVSETYSAADFQKEGRQKIKEITEKGKLPIIVGGTGLYIQSLLYDFQLGSREIDDSPEIRETYNLFAEEKGNQALWLLLQQKDPLAANSIHFNNRKKVIRALEVFDKTGYSILTPKEKPARLYDYYLLGLETDRALLYERINQRVDQMMTEGLLEEAKQMFQQPHAQAAQGIGYKEFFPYFSGEQSLEMAVETVKQQSRRYAKRQLTWFRNRMAAHWWNLVQQPTDLPKLEKEVAEWLQQKESEEGHHHHHH”, for which the “soluble on expression in E. coli” value is given as “soluble”.

As for “MGHHHHHHSHMVTHSKFPAAGMSRPLDTSLRLKTFSSKSEYQLVVNAVRKLQESGFYWSAVTGGEANLLLSAEPAGTFLIRDSSDQRHFFALSVKTQSGTKNLRIQCEGGSFSLQSDPRSTQPVPRFDCVLKLVYHYMPPPGAPSFPSPPTEPSSEVPEQPSAQPLPGSPPRRAYYIYSGGEKIPLVLSRPLSSNVATLQHLCRKTVNGHLDSYEKVTQLPGPIREFLDQYDAPL”, the “soluble on expression in E. coli” value is listed as “not soluble”.

Consider “MRHILSVLIENESGAMSRVVGLFSARDYNIDSLAVAPTEDKTLSRMTIVTHGDEQVIEQITKQLNKLIEVIKVVDLNESRFVERELMLVKVRAAGKDRDEFLRLTEIYRGSIIDVTDRSYTIEITGSTDKLDSFLETVGRAQILETVRTGAAGIGRGERILKI”, for which the “soluble on expression in E. coli” value is “not soluble”.

For the sequence “MPESIFKQISLDILKLHRDSVYSLLATSGCNCQVHEAAYVNIDGKYYIALSCEPEVGEVKTGILLIEDESRNLRLSWVGSARELDCKDNAYKRALSALSRKLGRCKDRLHTAVQPFLLELVPEKGRFSVGDEEVWISRNDLVRALYPVGYSMRQAVFQI”, the “soluble on expression in E. coli” value is reported as “not soluble”.

For “MREETKCALIIDESLPLGLIANTAAILGAALGKNKPDLIGETVTDGSGIDHLGIVKIPIPILKGNAELLHQLSQKLLTDEFNDILTVDFTDVAQSIHTYEAYIEAFQSTAASDYRYFGIGICGDKKKVARLTGSLGLLRLEHHHHHH”, the “soluble on expression in E. coli” value is “soluble”.

Turning to “MVSCENLWQQALAILATQLTKPAFDTWIKASVLISLGDGVATIQVENGFVLNHLQKSYGPLLMEVLTDLTGQEITVKLITDGLEPHSLIGQESSLPMETTPKNATALNGKYTFSRFVVGPTNRMAHAASLAVAESPGREFNPLFLCGGVGLGKTHLMQAIAHYRLEMYPNAKVYYVSTERFTNDLITAIRQDNMEDFRSYYRSADFLLIDDIQFIKGKEYTQEEFFHTFNSLHEAGKQVVVASDRAPQRIPGLQDRLISRFSMGLIADIQVPDLETRMAILQKKAEYDRIRLPKEVIEYIASHYTSNIRELEGALIRAIAYTSLSNVAMTVENIAPVLNPPVEKVAAAPETIITIVAQHYQLKVEELLSNSRRREVSLARQVGMYLMRQHTDLSLPRIGEAFGGKDHTTVMYSCDKITQLQQKDWETSQTLTSLSHRINIAGQAPESLEHHHHHH”, the “soluble on expression in E. coli” value is on record as “not soluble”.

In the case of “MRGSHHHHHHGMASMTGGQQMGRDLYDDDDKDHPFTMFYEKIQTPAYILEEDKLRKNCELLASVGEKSGAKVLLALKGFAFSGAMKIVGEYLKGCTCSGLWEAKFAKEYMDKEIHTYSPAFKEDEIGEIASLSHHIVFNSLAQFHKFQSKTQKNSLGLRCNVEFSLAPKELYNPCGRYSRLGIRAKDFENVDLNAIEGLHFHALCEESADALEAVLKVFEEKFGKWIGQMKWVNFGGGHHITKKGYDVEKLIALCKNFSDKYGVQVYLEPGEAVGWQTGNLVASVVDIIENEKQIAILDTSSEAHMPDTIIMPYTSEVLNARILATRENEKISDLKENEFAYLLTGNTCLAGDVMGEYAFDKKLKIGDKIVFLDQIHYTIVKNTTFNGIRLPNLMLLDHKNELQMIREFSYKDYSLRN”, the “soluble on expression in E. coli” value is “soluble”.

Regarding “MSLGLSFFSKHLPIQEGQPWALKTPADIISTVEFNHTGELLATGDKGGRVVIFQREPESKNAPHSQGEYDVYSTFQSHEPEFDYLKSLEIEEKINKIKWLPQQNAAHSLLSTNDKTIKLWKITERDKRPEGYNLKDEEGKLKDLSTVTSLQVPVLKPMDLMVEVSPRRIFANGHTYHINSISVNSDCETYMSADDLRINLWHLAITDRSFNIVDIKPANMEDLTEVITASEFHPHHCNLFVYSSSKGSLRLCDMRAAALCDKHSKLFEEPEDPSNRSFFSEIISSVSDVKFSHSGRYMLTRDYLTVKVWDLNMEARPIETYQVHDYLRSKLCSLYENDCIFDKFECAWNGSDSVIMTGAYNNFFRMFDRNTKRDVTLEASRESSKPRAVLKPRRVCVGGKRRRDDISVDSLDFTKKILHTAWHPAENIIAIAATNNLYIFQDKVNSDMHEGHHHHHH”, the “soluble on expression in E. coli” value is given as “not soluble”.

Consider “MSQGQSKKLDVTVEQLRSIYHQFHDILEEKTDLHLPKKEYDDDAVRREVQIQLQEFLLSAMTMASKSLEVVNADTVGKTVKQLIMESQEKYMEPFDLDLNEQVRKMYQEWEDETVKVAQLRQTGPAKINEVYNNSKDEYLAQLDGRIGVLQARMMQQQSADHDDSTDDADDHINWEHIKQDYVASLNELYQTQQDLPKVRYNVEKVKRLMDFLEED”, for which the “soluble on expression in E. coli” value is on record as “soluble”.

“PLIAVFIGSILFDYRLAQETADTAYDHSLNNAALDIAAYIQTVGLSPKLRLTPEAEAMLRHDAVDKIFFAVRDSNKQLLIGDAQLPAYPGAIHKRPVFIDDVYQGEKIRATTQLIMVDANEITITVAETMREREHASNRIL”: the “soluble on expression in E. coli” value is “not soluble”.
